The supplement of paper PMC9112550, “Optimization of the antimicrobial peptide Bac7 by deep mutational scanning” (BMC Biology, 2022)

Tested on: Escherichia coli TOP10
Assay: shrunken log2 fold change of peptide-encoding DNA abundance (4.5 h post-induction vs induction); higher = less antimicrobial activity (less host growth inhibition)
Conditions: time post-induction: 4.5 h; library: site-saturation at positions 5, 18, 19, 20
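Further: peptides expressed intracellularly from a pBAD plasmid library in pooled LB shake-flask culture, induced with 0.3% L-arabinose, DNA abundance read by NGS, three biological replicates, DESeq2 with apeglm shrinkage.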

| Sequence | shrunken log2 fold change |
| --- | --- |
| RRIRCRPPRLPRPRPRPAQDPRP | 0.289 |
| RRIRTRPPRLPRPRPRPPLYPRP | -0.12 |
| RRIRIRPPRLPRPRPRPQSMPRP | -0.138 |
| RRIRRRPPRLPRPRPRPQVTPRP | -0.0275 |
| RRIRVRPPRLPRPRPRPSTVPRP | -0.0673 |
| RRIRWRPPRLPRPRPRPFMKPRP | -0.128 |
| RRIRRRPPRLPRPRPRPAFSPRP | -0.00711 |
| RRIRTRPPRLPRPRPRPAKTPRP | 0.117 |
| RRIRVRPPRLPRPRPRPPMGPRP | 0.254 |
| RRIRTRPPRLPRPRPRPLSYPRP | -0.155 |
| RRIRTRPPRLPRPRPRPKMCPRP | 0.15 |
| RRIRDRPPRLPRPRPRPNWRPRP | 0.46 |
| RRIRPRPPRLPRPRPRPEGPPRP | -0.147 |
| RRIRVRPPRLPRPRPRPLGPPRP | 0.342 |
| RRIRRRPPRLPRPRPRPAIVPRP | 0.275 |
| RRIRARPPRLPRPRPRPISFPRP | 0.323 |
| RRIRFRPPRLPRPRPRPKRFPRP | 0.0111 |
| RRIRMRPPRLPRPRPRPPFAPRP | 1.07 |
| RRIRIRPPRLPRPRPRPDWNPRP | -0.993 |
| RRIRWRPPRLPRPRPRPVECPRP | 0.194 |
| RRIRHRPPRLPRPRPRPMYHPRP | -0.287 |
| RRIRVRPPRLPRPRPRPKGEPRP | -0.0112 |
| RRIRWRPPRLPRPRPRPFRQPRP | -0.0956 |
| RRIRFRPPRLPRPRPRPRGTPRP | 0.294 |
| RRIRWRPPRLPRPRPRPLTDPRP | -0.0316 |

| Sequence | shrunken log2 fold change |
| --- | --- |
| RRIRVRPPRLPRPRPRPSILPRP | -0.312 |
| RRIRVRPPRLPRPRPRPIIEPRP | -0.087 |
| RRIRGRPPRLPRPRPRPVNCPRP | 0.139 |
| RRIRARPPRLPRPRPRPVGWPRP | 1.02 |
| RRIRDRPPRLPRPRPRPRRRPRP | 0.736 |
| RRIRSRPPRLPRPRPRPSKAPRP | -0.0678 |
| RRIRERPPRLPRPRPRPLRAPRP | 0.348 |
| RRIRGRPPRLPRPRPRPFYFPRP | 0.219 |
| RRIRVRPPRLPRPRPRPQTKPRP | 0.0433 |
| RRIRVRPPRLPRPRPRPGWKPRP | 0.169 |
| RRIRNRPPRLPRPRPRPYSAPRP | -1.37 |
| RRIRVRPPRLPRPRPRPNADPRP | -0.00824 |
| RRIRNRPPRLPRPRPRPIFGPRP | -0.0237 |
| RRIRIRPPRLPRPRPRPELWPRP | 0.243 |
| RRIRFRPPRLPRPRPRPCVPPRP | -0.835 |
| RRIRDRPPRLPRPRPRPDINPRP | 0.47 |
| RRIRKRPPRLPRPRPRPNDFPRP | -0.0772 |
| RRIRTRPPRLPRPRPRPDLIPRP | -0.0343 |
| RRIRGRPPRLPRPRPRPANGPRP | 0.378 |
| RRIRPRPPRLPRPRPRPCVHPRP | -0.434 |
| RRIRLRPPRLPRPRPRPIKEPRP | -0.0262 |
| RRIRFRPPRLPRPRPRPKHRPRP | -0.094 |
| RRIRFRPPRLPRPRPRPARSPRP | 0.336 |
| RRIRSRPPRLPRPRPRPMIVPRP | -0.377 |
| RRIRFRPPRLPRPRPRPKERPRP | 0.193 |

| Sequence | shrunken log2 fold change |
| --- | --- |
| RRIRMRPPRLPRPRPRPWIPPRP | -0.205 |
| RRIRMRPPRLPRPRPRPHIQPRP | -0.421 |
| RRIRWRPPRLPRPRPRPKQCPRP | 0.31 |
| RRIRFRPPRLPRPRPRPHIWPRP | -0.57 |
| RRIRYRPPRLPRPRPRPPPVPRP | 0.61 |
| RRIRWRPPRLPRPRPRPQQCPRP | 0.112 |
| RRIRRRPPRLPRPRPRPKQAPRP | 0.908 |
| RRIRGRPPRLPRPRPRPQMVPRP | 0.166 |
| RRIRDRPPRLPRPRPRPGNTPRP | -0.165 |
| RRIRPRPPRLPRPRPRPIKIPRP | -0.319 |
| RRIRWRPPRLPRPRPRPNQQPRP | -0.0465 |
| RRIRPRPPRLPRPRPRPWWEPRP | 0.0134 |
| RRIRARPPRLPRPRPRPTLQPRP | 0.694 |
| RRIRHRPPRLPRPRPRPATEPRP | 0.29 |
| RRIRTRPPRLPRPRPRPEHEPRP | -0.109 |
| RRIRERPPRLPRPRPRPGIFPRP | 0.099 |
| RRIRWRPPRLPRPRPRPTHVPRP | 0.316 |
| RRIRLRPPRLPRPRPRPTNRPRP | 0.267 |
| RRIRQRPPRLPRPRPRPWRFPRP | -0.113 |
| RRIRERPPRLPRPRPRPWEPPRP | 0.073 |
| RRIRERPPRLPRPRPRPLTGPRP | -0.0199 |
| RRIRLRPPRLPRPRPRPQANPRP | -0.289 |
| RRIRFRPPRLPRPRPRPAAVPRP | 0.169 |
| RRIRHRPPRLPRPRPRPKCVPRP | -0.069 |
| RRIRQRPPRLPRPRPRPLEDPRP | 0.0428 |

| Sequence | shrunken log2 fold change |
| --- | --- |
| RRIRPRPPRLPRPRPRPKTMPRP | 0.0176 |
| RRIRGRPPRLPRPRPRPHGDPRP | 1.11 |
| RRIRGRPPRLPRPRPRPHTKPRP | 0.104 |
| RRIRWRPPRLPRPRPRPDIRPRP | -0.0808 |
| RRIRGRPPRLPRPRPRPWHSPRP | 0.0143 |
| RRIRCRPPRLPRPRPRPAKLPRP | 0.0355 |
| RRIRPRPPRLPRPRPRPHTDPRP | -0.327 |
| RRIRLRPPRLPRPRPRPFSFPRP | -0.388 |
| RRIRFRPPRLPRPRPRPKPRPRP | 0.886 |
| RRIRHRPPRLPRPRPRPKSGPRP | -0.242 |
| RRIRTRPPRLPRPRPRPPLLPRP | 0.172 |
| RRIRNRPPRLPRPRPRPISNPRP | 0.0351 |
| RRIRNRPPRLPRPRPRPWFHPRP | -0.179 |
| RRIRYRPPRLPRPRPRPFHVPRP | -0.184 |
| RRIRRRPPRLPRPRPRPTMHPRP | 0.539 |
| RRIRCRPPRLPRPRPRPVISPRP | -0.154 |
| RRIRYRPPRLPRPRPRPLQWPRP | -0.0328 |
| RRIRWRPPRLPRPRPRPRCNPRP | 0.0644 |
| RRIRRRPPRLPRPRPRPTLKPRP | 0.379 |
| RRIRIRPPRLPRPRPRPRNVPRP | -0.247 |
| RRIRHRPPRLPRPRPRPTFYPRP | -0.183 |
| RRIRMRPPRLPRPRPRPVGHPRP | 0.193 |
| RRIRQRPPRLPRPRPRPMWGPRP | -0.263 |
| RRIRMRPPRLPRPRPRPCHVPRP | -0.0132 |
| RRIRERPPRLPRPRPRPSGGPRP | -0.0233 |

| Sequence | shrunken log2 fold change |
| --- | --- |
| RRIRPRPPRLPRPRPRPQQKPRP | 0.433 |
| RRIRLRPPRLPRPRPRPKGYPRP | -0.146 |
| RRIRNRPPRLPRPRPRPMKQPRP | 0.0238 |
| RRIRWRPPRLPRPRPRPFCAPRP | 0.23 |
| RRIRIRPPRLPRPRPRPIHPPRP | -0.208 |
| RRIRQRPPRLPRPRPRPMCSPRP | -0.000965 |
| RRIRLRPPRLPRPRPRPMRDPRP | 0.336 |
| RRIRKRPPRLPRPRPRPAYMPRP | 0.0668 |
| RRIRVRPPRLPRPRPRPQIRPRP | -0.305 |
| RRIRARPPRLPRPRPRPDYKPRP | -0.0382 |
| RRIRTRPPRLPRPRPRPSTHPRP | -0.575 |
| RRIRLRPPRLPRPRPRPPTVPRP | 0.026 |
| RRIRWRPPRLPRPRPRPEKRPRP | 0.028 |
| RRIRQRPPRLPRPRPRPICKPRP | -0.00411 |
| RRIRPRPPRLPRPRPRPFGYPRP | -0.24 |
| RRIRLRPPRLPRPRPRPAKDPRP | -0.136 |
| RRIRWRPPRLPRPRPRPISLPRP | -0.161 |
| RRIRNRPPRLPRPRPRPASKPRP | 0.0111 |
| RRIRNRPPRLPRPRPRPTYIPRP | -0.603 |
| RRIRKRPPRLPRPRPRPIYYPRP | -0.37 |
| RRIRERPPRLPRPRPRPWDLPRP | -0.164 |
| RRIRLRPPRLPRPRPRPWSPPRP | -0.303 |
| RRIRSRPPRLPRPRPRPFRFPRP | -0.21 |
| RRIRQRPPRLPRPRPRPRGWPRP | 0.267 |
| RRIRNRPPRLPRPRPRPLHYPRP | -0.147 |

| Sequence | shrunken log2 fold change |
| --- | --- |
| RRIRSRPPRLPRPRPRPQAIPRP | 0.0296 |
| RRIRSRPPRLPRPRPRPHQHPRP | -0.321 |
| RRIRVRPPRLPRPRPRPAKKPRP | 0.0179 |
| RRIRLRPPRLPRPRPRPSARPRP | 0.0346 |
| RRIRIRPPRLPRPRPRPLYQPRP | -0.904 |
| RRIRTRPPRLPRPRPRPNFEPRP | -0.101 |
| RRIRKRPPRLPRPRPRPDYSPRP | -0.168 |
| RRIRYRPPRLPRPRPRPTFFPRP | -0.0709 |
| RRIRGRPPRLPRPRPRPYCWPRP | 0.0345 |
| RRIRIRPPRLPRPRPRPNKTPRP | -0.125 |
| RRIRIRPPRLPRPRPRPNDIPRP | -1.11 |
| RRIRLRPPRLPRPRPRPAMDPRP | 0.113 |
| RRIRIRPPRLPRPRPRPQNTPRP | -0.86 |
| RRIRYRPPRLPRPRPRPCCMPRP | -0.356 |
| RRIRRRPPRLPRPRPRPCCCPRP | 0.0202 |
| RRIRCRPPRLPRPRPRPLQNPRP | -0.0876 |
| RRIRIRPPRLPRPRPRPFNVPRP | -0.217 |
| RRIRSRPPRLPRPRPRPRGQPRP | 0.197 |
| RRIRQRPPRLPRPRPRPSAKPRP | 0.104 |
| RRIRLRPPRLPRPRPRPCYVPRP | -1.08 |
| RRIRDRPPRLPRPRPRPSYNPRP | -0.285 |
| RRIRMRPPRLPRPRPRPDYKPRP | 0.248 |
| RRIRLRPPRLPRPRPRPFYCPRP | -0.472 |
| RRIRKRPPRLPRPRPRPITLPRP | -0.0554 |
| RRIRYRPPRLPRPRPRPGVWPRP | 0.171 |
